Experiments:
[1] = target: full length monkey MSR1 on HEK293.mfMSR1 cells (Macaca fascicularis); test: ECL cell binding, HEK293.mfMSR1
[2] = target: full length human MSR1 with a C-terminal Myc tag on HEK293.Myc.hMSR1 cells (human) (UniProt P21757); test: ECL cell binding, HEK293.Myc.hMSR1
[3] = target: endogenously expressed human MSR1 on PMA-treated THP-1 cells (human) (UniProt P21757); test: ECL cell binding, PMA-treated THP-1
[4] = target: His9-hMSR1, human MSR1 extracellular domain with an N-terminal 9-Histidine tag (human) (UniProt P21757); test: competition ELISA on coated His9-hMSR1; competitor Ac-LDL; antibody 100 nM
His9-hMSR1, human MSR1 extracellular domain with an N-terminal 9-Histidine tag (human), sequence (P21757 other isoform, or with tags, fused parts or gaps): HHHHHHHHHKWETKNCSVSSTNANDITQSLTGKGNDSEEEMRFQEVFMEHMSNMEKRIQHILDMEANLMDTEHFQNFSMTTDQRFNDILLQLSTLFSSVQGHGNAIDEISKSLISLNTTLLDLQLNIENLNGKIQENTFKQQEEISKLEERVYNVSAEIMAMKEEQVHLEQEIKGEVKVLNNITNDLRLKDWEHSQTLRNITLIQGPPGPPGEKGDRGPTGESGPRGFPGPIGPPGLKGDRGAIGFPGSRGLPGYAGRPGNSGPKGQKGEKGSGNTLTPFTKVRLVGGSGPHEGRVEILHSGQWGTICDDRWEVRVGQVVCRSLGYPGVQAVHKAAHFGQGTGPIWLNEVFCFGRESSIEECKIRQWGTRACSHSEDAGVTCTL

[5] = target: His9-hMSR1, human MSR1 extracellular domain with an N-terminal 9-Histidine tag (human) (UniProt P21757); test: competition ELISA on coated His9-hMSR1; competitor Ox-LDL 10 nM; antibody 1 µM
[6] = target: His9-hMSR1, human MSR1 extracellular domain with an N-terminal 9-Histidine tag (human) (UniProt P21757); test: competition ELISA on coated His9-hMSR1; competitor biot-AGE-BSA; antibody 300 nM
[7] = target: human MSR1 endogenously expressed on PMA-differentiated THP-1 cells (human) (UniProt P21757); test: cell-based or functional assay
human MSR1 endogenously expressed on PMA-differentiated THP-1 cells (human), sequence (P21757 whole entry): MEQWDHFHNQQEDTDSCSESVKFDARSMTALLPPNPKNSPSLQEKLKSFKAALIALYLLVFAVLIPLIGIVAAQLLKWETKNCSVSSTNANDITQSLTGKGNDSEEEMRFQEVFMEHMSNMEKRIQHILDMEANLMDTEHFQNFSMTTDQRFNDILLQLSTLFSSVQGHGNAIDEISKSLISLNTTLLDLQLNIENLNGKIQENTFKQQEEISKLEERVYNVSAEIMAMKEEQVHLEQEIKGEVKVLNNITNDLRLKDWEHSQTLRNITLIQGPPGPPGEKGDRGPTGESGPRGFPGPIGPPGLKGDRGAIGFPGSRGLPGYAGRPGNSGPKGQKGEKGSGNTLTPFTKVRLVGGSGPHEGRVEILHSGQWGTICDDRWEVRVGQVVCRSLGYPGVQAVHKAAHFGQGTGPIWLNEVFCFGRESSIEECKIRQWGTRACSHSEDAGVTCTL

[8] = target: human MSR1 endogenously expressed on PMA-differentiated THP-1 cells (human) (UniProt P21757); test: imaging of PMA-differentiated THP-1 cells, 10 ug/mL antibody, Alexa 488 secondary

full length monkey MSR1 on HEK293.mfMSR1 cells (Macaca fascicularis), sequence (chain, as listed by the source): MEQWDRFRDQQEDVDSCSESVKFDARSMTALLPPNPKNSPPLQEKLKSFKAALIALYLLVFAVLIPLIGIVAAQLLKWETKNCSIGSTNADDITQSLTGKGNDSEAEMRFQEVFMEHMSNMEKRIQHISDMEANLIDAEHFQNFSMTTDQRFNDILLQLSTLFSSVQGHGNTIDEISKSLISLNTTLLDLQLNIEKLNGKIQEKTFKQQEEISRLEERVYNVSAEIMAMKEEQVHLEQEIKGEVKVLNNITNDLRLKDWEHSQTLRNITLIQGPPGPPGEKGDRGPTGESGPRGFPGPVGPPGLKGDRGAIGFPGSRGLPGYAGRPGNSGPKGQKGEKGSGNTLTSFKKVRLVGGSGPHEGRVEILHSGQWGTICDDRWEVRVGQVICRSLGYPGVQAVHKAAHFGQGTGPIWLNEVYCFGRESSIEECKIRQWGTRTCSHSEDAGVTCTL
full length human MSR1 with a C-terminal Myc tag on HEK293.Myc.hMSR1 cells (human), sequence (P21757 whole entry): as the sequence (P21757 whole entry) above
endogenously expressed human MSR1 on PMA-treated THP-1 cells (human), sequence (P21757 whole entry, the tested form may be a part): as the sequence (P21757 whole entry) above

binding signal ratio to isotype control (11 nM) [1] | binding signal ratio to isotype control (11 nM) [2] | binding signal ratio to isotype control (11 nM) [3] | % Blocking [4] | % Blocking [5] | % Blocking [6] | Substance | also measured
1 fold | 1 fold | 1 fold |  |  |  | hIgG1 Isotype Control (antibody) | 
 |  |  | -8% | 3% | 4% | hIgG1 isotype control (competition ELISA of Table 20) (antibody) | 
1 fold | 1 fold | 1 fold |  |  |  | mIgG Isotype Control (antibody) | 
 |  |  | -4% | 16% | 7% | mIgG1 isotype control (competition ELISA of Table 20) (antibody) | 
 |  |  |  |  |  | Isotype control (internalization assay of Table 19) (antibody) | Total Internalized RFU [7]: 1.7e+06 RFU; Total Binding at 4° C. [8]: 186000 RFU; Total Binding at 37° C. [8]: 1.09e+06 RFU
